Experimental data: the supplement of paper PMC10065799, “High-throughput profiling of sequence recognition by tyrosine kinases and SH2 domains using bacterial peptide display” (eLife, 2023)

What was measured:
SHP2-C SH2 = experiment: SH2 binding enrichment of the phosphorylated peptide, bacterial display (enrichment ratio); higher = better substrate or ligand; peptides without Tyr show the background
c-Src SH2 = experiment: as above
Grb2 SH2 = Grb2 SH2 (UniProt P62993); experiment: as above
EPHB2 = EPHB2 (UniProt P29323); experiment: phosphorylation enrichment, bacterial display (enrichment ratio); higher = better substrate or ligand; peptides without Tyr show the background
MERTK = MERTK (UniProt Q12866); experiment: as above
AncSZ = experiment: as above
Fer (mouse) = experiment: as above
Jak2 = Jak2 (UniProt O60674); experiment: as above
Hck = Hck (UniProt P08631); experiment: as above
c-Abl (mouse) = experiment: as above
Fes = Fes (UniProt P07332); experiment: as above
Fyn = Fyn (UniProt P06241); experiment: as above
FGFR1 = FGFR1 (UniProt P11362); experiment: as above
FGFR3 = FGFR3 (UniProt P22607); experiment: as above
c-Src = experiment: as above
EPHB1 = EPHB1 (UniProt P54762); experiment: as above
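Wherever SH2 binding enrichment of the phosphorylated peptide, bacterial display is given: peptide library displayed on the E. coli surface as eCPX fusions, selected cells deep-sequenced, score is each peptide's frequency after selection divided by its frequency in the input.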
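Wherever phosphorylation enrichment, bacterial display is given: 11-residue human phosphosite peptides and single-mutation variants displayed on the E. coli surface, counted by deep sequencing, each peptide's frequency after selection divided by its frequency in the unselected input library; frequency after pTyr selection over input frequency; kinase dosed for 20-30% of maximal phosphorylation in three min.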

Chain of EPHB1 (P54762 whole entry, looked up, the tested form may be a part): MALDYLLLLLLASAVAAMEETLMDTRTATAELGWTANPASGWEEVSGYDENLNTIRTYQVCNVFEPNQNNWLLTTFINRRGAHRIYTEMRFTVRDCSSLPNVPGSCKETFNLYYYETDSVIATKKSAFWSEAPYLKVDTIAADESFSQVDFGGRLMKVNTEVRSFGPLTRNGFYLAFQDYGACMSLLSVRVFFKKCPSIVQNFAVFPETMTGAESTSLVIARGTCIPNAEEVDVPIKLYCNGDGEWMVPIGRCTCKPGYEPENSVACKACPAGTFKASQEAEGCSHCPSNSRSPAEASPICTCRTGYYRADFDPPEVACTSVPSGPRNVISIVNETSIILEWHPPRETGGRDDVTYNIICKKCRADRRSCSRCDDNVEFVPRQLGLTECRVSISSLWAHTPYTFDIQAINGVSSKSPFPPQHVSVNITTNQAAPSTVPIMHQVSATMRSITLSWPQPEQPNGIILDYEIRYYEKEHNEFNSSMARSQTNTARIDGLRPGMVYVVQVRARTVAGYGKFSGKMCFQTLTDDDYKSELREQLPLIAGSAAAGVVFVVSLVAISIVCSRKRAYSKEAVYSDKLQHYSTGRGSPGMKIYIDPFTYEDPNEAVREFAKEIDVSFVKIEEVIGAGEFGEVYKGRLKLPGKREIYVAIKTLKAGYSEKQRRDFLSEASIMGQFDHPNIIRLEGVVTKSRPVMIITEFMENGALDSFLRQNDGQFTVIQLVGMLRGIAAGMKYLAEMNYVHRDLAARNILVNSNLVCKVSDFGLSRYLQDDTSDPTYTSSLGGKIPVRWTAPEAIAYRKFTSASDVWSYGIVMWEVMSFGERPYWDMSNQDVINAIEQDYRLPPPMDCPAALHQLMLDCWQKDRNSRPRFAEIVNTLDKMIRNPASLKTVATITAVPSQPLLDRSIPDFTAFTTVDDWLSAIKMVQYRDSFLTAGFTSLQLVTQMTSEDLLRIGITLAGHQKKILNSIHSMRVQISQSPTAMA
Chain of Hck (P08631 whole entry, looked up): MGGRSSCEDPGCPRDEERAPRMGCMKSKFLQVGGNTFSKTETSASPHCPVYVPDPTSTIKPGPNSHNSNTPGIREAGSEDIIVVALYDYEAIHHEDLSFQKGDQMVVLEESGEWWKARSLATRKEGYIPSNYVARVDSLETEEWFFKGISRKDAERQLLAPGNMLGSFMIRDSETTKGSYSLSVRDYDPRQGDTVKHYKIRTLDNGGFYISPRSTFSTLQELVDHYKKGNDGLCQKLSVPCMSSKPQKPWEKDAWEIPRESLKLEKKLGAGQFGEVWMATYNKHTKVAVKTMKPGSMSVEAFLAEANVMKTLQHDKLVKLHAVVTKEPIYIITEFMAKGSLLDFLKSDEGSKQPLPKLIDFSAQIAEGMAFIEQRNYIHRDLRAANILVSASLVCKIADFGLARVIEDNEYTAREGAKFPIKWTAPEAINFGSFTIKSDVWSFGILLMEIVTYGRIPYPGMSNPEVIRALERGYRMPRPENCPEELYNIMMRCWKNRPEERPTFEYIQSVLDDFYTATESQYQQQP
Chain of MERTK (Q12866 whole entry, looked up): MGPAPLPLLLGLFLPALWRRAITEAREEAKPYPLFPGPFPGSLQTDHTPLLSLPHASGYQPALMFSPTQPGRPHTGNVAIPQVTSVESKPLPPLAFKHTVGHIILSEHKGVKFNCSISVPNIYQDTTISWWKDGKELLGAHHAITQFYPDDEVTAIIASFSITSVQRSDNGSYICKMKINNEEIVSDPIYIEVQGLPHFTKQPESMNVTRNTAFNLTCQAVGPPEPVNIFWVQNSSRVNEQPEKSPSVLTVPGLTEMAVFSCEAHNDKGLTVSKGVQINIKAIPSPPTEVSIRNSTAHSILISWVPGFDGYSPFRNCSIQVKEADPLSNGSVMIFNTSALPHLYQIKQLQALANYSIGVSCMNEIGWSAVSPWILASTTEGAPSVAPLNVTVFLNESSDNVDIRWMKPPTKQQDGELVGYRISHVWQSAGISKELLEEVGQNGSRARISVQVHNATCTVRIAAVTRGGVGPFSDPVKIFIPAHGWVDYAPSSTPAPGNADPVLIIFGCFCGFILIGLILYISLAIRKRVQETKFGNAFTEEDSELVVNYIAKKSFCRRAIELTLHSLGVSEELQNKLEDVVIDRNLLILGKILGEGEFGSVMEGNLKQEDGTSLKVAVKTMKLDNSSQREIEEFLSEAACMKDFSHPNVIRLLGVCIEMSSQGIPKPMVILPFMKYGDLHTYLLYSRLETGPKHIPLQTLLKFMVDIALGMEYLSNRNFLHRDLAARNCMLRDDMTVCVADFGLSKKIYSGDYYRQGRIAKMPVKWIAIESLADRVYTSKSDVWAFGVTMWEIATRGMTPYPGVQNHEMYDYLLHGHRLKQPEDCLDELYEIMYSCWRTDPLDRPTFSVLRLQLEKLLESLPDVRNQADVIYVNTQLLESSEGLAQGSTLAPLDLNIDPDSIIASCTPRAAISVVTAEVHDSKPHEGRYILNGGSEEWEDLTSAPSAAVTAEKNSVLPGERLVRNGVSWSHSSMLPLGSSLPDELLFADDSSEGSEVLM
Chain of Fes (P07332 whole entry, looked up): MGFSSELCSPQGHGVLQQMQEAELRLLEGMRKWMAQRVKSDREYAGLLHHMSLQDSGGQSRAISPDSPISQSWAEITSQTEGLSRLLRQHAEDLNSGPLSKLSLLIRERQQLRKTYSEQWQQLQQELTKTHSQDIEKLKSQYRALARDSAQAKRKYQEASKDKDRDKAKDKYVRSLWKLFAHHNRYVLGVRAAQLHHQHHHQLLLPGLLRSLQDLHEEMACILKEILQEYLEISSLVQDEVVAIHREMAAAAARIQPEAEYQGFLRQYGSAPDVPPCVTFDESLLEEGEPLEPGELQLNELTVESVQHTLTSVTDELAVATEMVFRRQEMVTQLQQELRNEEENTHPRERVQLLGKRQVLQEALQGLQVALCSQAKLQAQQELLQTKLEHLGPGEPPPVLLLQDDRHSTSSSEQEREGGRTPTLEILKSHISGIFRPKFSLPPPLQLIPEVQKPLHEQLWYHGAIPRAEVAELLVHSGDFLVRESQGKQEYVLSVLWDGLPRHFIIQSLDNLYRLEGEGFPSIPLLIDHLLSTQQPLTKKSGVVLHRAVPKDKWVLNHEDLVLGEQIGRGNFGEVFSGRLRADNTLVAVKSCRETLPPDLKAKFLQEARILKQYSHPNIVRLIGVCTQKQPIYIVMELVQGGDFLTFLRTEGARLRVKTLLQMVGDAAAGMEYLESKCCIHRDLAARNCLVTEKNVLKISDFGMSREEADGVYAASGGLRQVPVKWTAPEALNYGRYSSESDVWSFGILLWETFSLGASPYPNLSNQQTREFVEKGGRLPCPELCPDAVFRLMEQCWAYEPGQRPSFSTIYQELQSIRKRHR
Chain of FGFR3 (P22607 whole entry, looked up): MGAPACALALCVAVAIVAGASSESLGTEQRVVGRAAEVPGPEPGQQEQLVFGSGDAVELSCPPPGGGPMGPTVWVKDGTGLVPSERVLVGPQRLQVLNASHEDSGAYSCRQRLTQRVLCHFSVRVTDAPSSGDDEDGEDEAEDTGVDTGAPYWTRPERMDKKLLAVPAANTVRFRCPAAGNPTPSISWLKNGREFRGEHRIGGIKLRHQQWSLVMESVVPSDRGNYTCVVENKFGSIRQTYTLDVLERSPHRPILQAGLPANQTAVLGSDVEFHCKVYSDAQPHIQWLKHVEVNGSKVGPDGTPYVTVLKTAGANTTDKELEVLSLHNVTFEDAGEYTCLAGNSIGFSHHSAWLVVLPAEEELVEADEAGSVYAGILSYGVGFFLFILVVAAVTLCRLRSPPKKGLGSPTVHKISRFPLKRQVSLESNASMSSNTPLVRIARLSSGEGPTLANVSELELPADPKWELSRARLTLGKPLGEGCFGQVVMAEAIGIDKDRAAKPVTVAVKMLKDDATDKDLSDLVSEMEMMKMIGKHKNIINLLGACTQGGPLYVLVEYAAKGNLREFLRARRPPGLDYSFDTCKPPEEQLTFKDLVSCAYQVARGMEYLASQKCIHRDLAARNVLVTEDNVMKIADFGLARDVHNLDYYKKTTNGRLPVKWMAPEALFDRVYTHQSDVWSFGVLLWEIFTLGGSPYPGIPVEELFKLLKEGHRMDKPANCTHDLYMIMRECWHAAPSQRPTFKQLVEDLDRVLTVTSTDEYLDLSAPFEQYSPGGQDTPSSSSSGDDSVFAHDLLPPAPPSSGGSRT
Chain of Fyn (P06241 whole entry, looked up): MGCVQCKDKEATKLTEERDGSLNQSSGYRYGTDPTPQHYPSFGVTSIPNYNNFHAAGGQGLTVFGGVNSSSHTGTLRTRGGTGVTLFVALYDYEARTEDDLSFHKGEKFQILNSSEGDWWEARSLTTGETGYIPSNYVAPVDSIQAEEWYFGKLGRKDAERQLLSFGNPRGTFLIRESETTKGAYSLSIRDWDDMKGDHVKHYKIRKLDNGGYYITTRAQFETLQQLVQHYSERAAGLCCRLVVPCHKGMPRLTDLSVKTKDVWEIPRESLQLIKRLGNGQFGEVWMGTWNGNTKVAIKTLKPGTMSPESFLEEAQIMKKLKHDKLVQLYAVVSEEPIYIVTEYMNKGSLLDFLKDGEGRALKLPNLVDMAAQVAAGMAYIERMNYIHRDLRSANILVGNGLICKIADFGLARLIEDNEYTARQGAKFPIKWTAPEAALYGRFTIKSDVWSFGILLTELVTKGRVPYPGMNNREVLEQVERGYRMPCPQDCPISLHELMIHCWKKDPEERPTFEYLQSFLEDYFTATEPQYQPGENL

Sequence	SH2 binding enrichment (SHP2-C SH2)	SH2 binding enrichment (c-Src SH2)	SH2 binding enrichment (Grb2 SH2)	phosphorylation enrichment (EPHB2)	phosphorylation enrichment (MERTK)	phosphorylation enrichment (AncSZ)	phosphorylation enrichment (Fer (mouse))	phosphorylation enrichment (Jak2)	phosphorylation enrichment (Hck)	phosphorylation enrichment (c-Abl (mouse))	phosphorylation enrichment (Fes)	phosphorylation enrichment (Fyn)	phosphorylation enrichment (FGFR1)	phosphorylation enrichment (FGFR3)	phosphorylation enrichment (c-Src)	phosphorylation enrichment (EPHB1)
AVEDQYFCVDC [FHL1_Y207_YF]	0.736	0.662	0.849	0.862	0.622	2.15	0.7	1.48	0.791	0.868	1.64	0.775	5.2	3.66	0.703	1.17
TDHLRYFDSNK [ARAP1_Y359]	0.714	0.507	0.968	0.442	0.466	1.04	0.456	0.665	0.451	1.14	0.794	0.428	0.414	0.573	0.41	0.611
SVGGLYRDMGA [CBX8_Y321_G317V]	0.53	0.393	0.72	0.43	0.483	0.699	0.446	0.734	0.481	0.555	0.791	0.408	0.541	0.561	0.385	0.567
SENAFYLSPHI [COL6A3_Y2827_D2831H]	0.606	0.461	0.776	0.573	0.696	1.26	0.775	3.25	0.863	1.96	0.887	0.487	0.653	0.693	0.491	0.576
KELAKYYKLHH [AK7_Y390_N389K]	0.622	0.782	1.01	0.363	0.422	0.472	0.383	0.379	0.39	0.46	0.472	0.35	0.377	0.418	0.439	0.366
ITLPIYTKESE [ANK2_Y1455]	0.72	0.515	0.845	0.499	1.75	0.961	0.485	1.11	0.907	0.848	1.19	0.88	0.722	0.76	0.974	0.641
PLKALYLQQRP [ATM_Y2969]	1.07	0.914	1.3	0.687	0.695	0.954	0.764	1.17	0.642	0.934	1.49	0.822	0.774	0.743	0.576	0.766
KFLENYLNRLL [PLD2_Y169_YF]	1.79	1.51	1.67	0.642	0.37	0.694	0.462	0.762	0.415	0.471	0.768	0.37	0.499	0.562	0.481	0.464
IKGNMYFENSF [EGFR_Y112_R108K_YF]	0.784	0.619	0.932	0.446	0.539	0.991	0.471	1.02	0.397	0.897	0.951	0.533	0.516	0.677	0.657	0.589
YPSLPYSPVSS [CAMKK2_Y128_C123Y]	1.01	0.668	0.967	0.401	0.514	0.663	3.13	0.489	0.62	0.564	0.683	0.458	0.873	0.721	0.546	0.436
FARNCYVAGQF [G6PD_Y107_S106C_YF]	0.383	0.437	0.742	0.487	0.363	0.983	0.417	0.743	0.409	0.714	0.938	0.387	0.461	0.553	0.507	0.505
LSSNLYFRWLT [CNGA3_Y168_P163L_YF]	1.01	0.531	0.655	0.749	4.32	1.76	1.01	5.07	1.73	1.79	1.64	0.595	1.15	1.51	1.21	0.783
MRTMGYMPTEM [CABP5_Y62]	1.08	0.407	0.789	0.509	0.344	0.683	0.459	0.507	0.456	0.447	0.732	0.388	0.63	0.538	0.355	0.428
MEVGQYFFVKC [CYBB_Y324_I325F]	0.61	0.44	0.716	0.8	1.13	2.28	0.801	2.56	0.719	1.39	1.69	0.551	4.99	4.7	0.667	0.861
TINPIHEHVGF [CHN1_Y143_Y143H_YF]	0.757	0.519	0.813	0.346	0.328	0.433	0.397	0.429	0.299	0.477	0.619	0.335	0.393	0.441	0.339	0.321
VDTLWYKFLKR [EPM2A_Y86_F84L]	0.573	0.426	0.943	0.763	0.374	0.868	0.466	0.892	0.441	0.68	1.11	0.411	0.414	0.611	0.366	0.46
NHRNQYQALKP [CLSPN_Y887]	1.05	0.915	1.06	0.377	0.531	0.739	0.356	0.463	0.504	0.476	0.534	0.335	0.351	0.438	0.404	0.375
VDSAHYKLLET [DTX3L_Y385]	0.67	0.517	0.793	0.574	0.419	0.665	0.427	0.517	0.543	0.466	0.722	0.485	0.485	0.657	0.401	0.355
TSNQEYLFLSM [FGFR1_Y766_D768Y_YF]	0.563	0.358	0.877	0.721	0.469	1.21	0.557	1.06	0.572	0.813	1.09	0.574	5.2	3.32	0.488	0.765

More lines, main results first:

SH2 binding enrichment (SHP2-C SH2)	SH2 binding enrichment (c-Src SH2)	SH2 binding enrichment (Grb2 SH2)	Sequence	phosphorylation enrichment (EPHB2)	phosphorylation enrichment (MERTK)	phosphorylation enrichment (AncSZ)	phosphorylation enrichment (Fer (mouse))	phosphorylation enrichment (Jak2)	phosphorylation enrichment (Hck)	phosphorylation enrichment (c-Abl (mouse))	phosphorylation enrichment (Fes)	phosphorylation enrichment (Fyn)	phosphorylation enrichment (FGFR1)	phosphorylation enrichment (FGFR3)	phosphorylation enrichment (c-Src)	phosphorylation enrichment (EPHB1)
0.607	2.16	0.743	NTYEKYLEEEY [TF_Y669_G671E]	0.686	0.563	1.6	0.563	1.6	0.608	1.27	1.93	0.535	0.553	0.86	0.9	0.802
0.795	6.43	0.936	HGVSSYDTVIS [LDLR_Y465]	0.865	0.811	1.19	0.638	0.911	0.846	0.779	1.15	0.818	0.801	0.706	0.441	0.515
0.362	0.428	0.729	ILTYKYLQKPM [KIT_Y547]	0.591	0.487	0.666	0.495	0.801	0.458	0.654	1.15	0.41	0.396	0.518	0.521	0.686
0.908	0.519	0.987	CGSLLYGLVHQ [PRKCG_Y122]	4.64	7.41	0.889	12.9	0.673	7.19	0.664	1.2	5.73	0.545	0.663	5.57	2.22
0.871	0.546	1.03	EGWQVYRLGTR [MISP_Y95_A99T]	0.457	0.325	0.846	0.45	0.733	1.03	0.525	0.75	1.78	0.44	0.645	3.69	0.416
0.723	0.575	0.811	CHSDDYVHISI [TSC1_Y406_L411I]	0.67	0.457	1.65	0.597	1.07	0.573	0.879	1.39	0.532	1.65	1.29	0.524	0.898
0.831	0.432	0.85	LEKISYVFMKR [SSX7_Y48_YF]	1.21	0.538	1.9	0.879	1.72	1.14	0.811	2.51	0.963	0.969	1.42	0.581	1.65
0.888	1.17	1.29	CQLENYCNGGG [INS_Y108_Y103C]	0.696	0.503	0.925	0.49	0.837	0.57	0.621	0.89	0.54	0.573	0.664	0.494	0.681
1.13	0.433	0.901	RQSHNYLGGFA [SYK_Y47_R45H]	0.537	0.414	0.686	0.387	0.523	0.599	0.817	0.65	0.464	0.501	0.558	0.394	0.427
2.4	3.68	1.26	CTTIHYNYMCH [TP53_Y234_N239H]	0.761	0.407	0.751	0.597	0.672	0.49	0.581	0.855	0.449	0.514	0.706	0.506	0.724
0.464	0.536	0.85	HLLRIYFDITD [MMP27_Y307_W304L_YF]	0.891	0.568	1.99	0.846	2.05	0.733	1.87	2.46	0.491	0.874	1.68	0.791	1.53
0.576	0.431	0.93	LANNEYYFQVC	1.56	2.08	3.4	1.11	2.34	1.19	1.02	1.69	1.43	15.7	12.9	1.94	1.63
0.632	0.528	0.744	GDAMLYFPSVS [GPR143_Y177_A173D_YF]	0.446	0.726	0.721	0.521	1.92	0.692	0.674	0.823	0.55	0.801	0.98	0.746	0.511
0.554	0.425	0.635	SVTCTYSPAPN [TP53_Y126_L130P]	0.581	0.362	1.12	0.503	0.999	0.501	0.776	1.14	0.435	0.495	0.83	0.509	0.517
